Experimental data from patent US20050152888A1.

Key:
[1] = target: Pre10 proteasome subunit C-terminally fused with Fpr1 (strain Pre10-FPR1) (S. cerevisiae) (UniProt P21242); assay: cell-based or functional assay
[2] = target: Rpn10 proteasome subunit C-terminally fused with Fpr1 (strain Rpn10-FPR1) (S. cerevisiae) (UniProt P38886); assay: cell-based or functional assay
Rpn10 proteasome subunit C-terminally fused with Fpr1 (strain Rpn10-FPR1) (S. cerevisiae), sequence (P38886 other isoform, or with tags, fused parts or gaps): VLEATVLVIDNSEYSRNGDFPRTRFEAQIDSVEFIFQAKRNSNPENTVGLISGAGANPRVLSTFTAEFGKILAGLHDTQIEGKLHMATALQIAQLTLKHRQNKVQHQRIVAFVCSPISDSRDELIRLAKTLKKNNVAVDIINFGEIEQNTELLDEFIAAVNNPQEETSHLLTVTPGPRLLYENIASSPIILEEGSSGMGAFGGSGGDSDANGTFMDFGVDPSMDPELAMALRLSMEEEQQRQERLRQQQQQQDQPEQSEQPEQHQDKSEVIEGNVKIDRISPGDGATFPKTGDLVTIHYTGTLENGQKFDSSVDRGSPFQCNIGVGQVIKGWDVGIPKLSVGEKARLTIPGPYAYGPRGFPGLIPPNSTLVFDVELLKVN

Pre10 proteasome subunit C-terminally fused with Fpr1 (strain Pre10-FPR1) (S. cerevisiae), sequence (P21242 other isoform, or with tags, fused parts or gaps): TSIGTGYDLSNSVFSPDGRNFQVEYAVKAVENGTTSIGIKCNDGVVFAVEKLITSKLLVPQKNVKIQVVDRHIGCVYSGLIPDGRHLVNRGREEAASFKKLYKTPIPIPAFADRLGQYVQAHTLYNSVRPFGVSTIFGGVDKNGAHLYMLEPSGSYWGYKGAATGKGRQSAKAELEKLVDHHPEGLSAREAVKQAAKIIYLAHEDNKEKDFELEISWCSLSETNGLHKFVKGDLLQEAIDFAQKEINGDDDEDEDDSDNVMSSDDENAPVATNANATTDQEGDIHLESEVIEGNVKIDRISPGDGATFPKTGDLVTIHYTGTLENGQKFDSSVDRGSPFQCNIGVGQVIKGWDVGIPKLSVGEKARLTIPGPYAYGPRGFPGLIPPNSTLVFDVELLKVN

**Q.** For “HA epitope-tagged Tor-His3 expressed in yeast (p415-TOR-link-HIS3HA) (from UniProt P35169 1883-2078; P06633 1-220)”, which half-life of reporter degradation in vivo with rapamycin (cycloheximide chase, anti-HA Western) [1] is on record?
**A.** 20 to 30 min

**Q.** And the half-life of reporter degradation in vivo with rapamycin (cycloheximide chase, anti-HA Western) [2]?
**A.** 20 to 30 min
